Reference: patent US20160304622A1 (GENEFRONTIER, published 2016)

What was measured:
Assay in all cases: immunoblotting after reducing SDS-PAGE
[1] = target: T1, recombinant human ADAM10 (R&D Systems) (human, UniProt O14672 214-672, limits assumed)
T1 sequence (looked up): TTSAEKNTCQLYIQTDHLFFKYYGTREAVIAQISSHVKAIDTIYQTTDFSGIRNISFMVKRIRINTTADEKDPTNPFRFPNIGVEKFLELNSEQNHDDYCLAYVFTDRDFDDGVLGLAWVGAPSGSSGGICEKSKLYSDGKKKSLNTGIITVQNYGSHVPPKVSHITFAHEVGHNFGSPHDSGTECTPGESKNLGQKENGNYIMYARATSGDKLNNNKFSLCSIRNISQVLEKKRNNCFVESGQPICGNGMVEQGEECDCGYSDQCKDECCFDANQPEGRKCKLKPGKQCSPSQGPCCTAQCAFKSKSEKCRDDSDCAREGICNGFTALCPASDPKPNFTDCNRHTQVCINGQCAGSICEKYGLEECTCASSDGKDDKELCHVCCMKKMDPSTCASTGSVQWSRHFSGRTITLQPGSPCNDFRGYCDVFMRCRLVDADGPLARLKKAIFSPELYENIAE
Description: (§1) Recombinant proteins of human ADAMTS1 (R&D Systems), ADAMTS4, ADAMTS5 (R&D Systems), ADAMTS15 (R&D Systems), ADAM10 (R&D Systems), ADAM12 (Mochida Pharmaceutical Co., Ltd., Tokyo, Japan), ADAM17 (R&D Systems) and MMP-13 (Millipore, Billerica, Mass.) and purified human MMP-1, MMP-2, MMP-3 and MMP-9 (Daiichi Fine Chemical, Co., Ltd., Toyama, Japan) were subjected to sodium dodecyl sulfate-polyacrylamide gel electrophoresis (SDS-PAGE) under reducing conditions, and the samples resolved on the gels were transferred onto polyvinylidene difluoride (PVDF) membranes. […] After washing with phosphate buffered saline containing 0.1% Tween 20, the membranes were reacted with horseradish peroxidase-conjugated secondary antibody against human IgG (Invitrogen, Carlsbad, Calif.) for 1 h at room temperature. A chemiluminescence reagent (Pierce ECL western blotting substrate; Thermo Fisher Scientific, Waltham, Mass.) was used to make the labeled protein bands visible. All the samples were also examined on silver-stained gels, which were prepared by silver stain kit (Cosmo Bio Co., Ltd, […].).

[2] = target: T2, recombinant human ADAM12 (Mochida Pharmaceutical Co., Ltd.) (human, UniProt O43184 208-708, limits assumed)
T2 sequence (looked up): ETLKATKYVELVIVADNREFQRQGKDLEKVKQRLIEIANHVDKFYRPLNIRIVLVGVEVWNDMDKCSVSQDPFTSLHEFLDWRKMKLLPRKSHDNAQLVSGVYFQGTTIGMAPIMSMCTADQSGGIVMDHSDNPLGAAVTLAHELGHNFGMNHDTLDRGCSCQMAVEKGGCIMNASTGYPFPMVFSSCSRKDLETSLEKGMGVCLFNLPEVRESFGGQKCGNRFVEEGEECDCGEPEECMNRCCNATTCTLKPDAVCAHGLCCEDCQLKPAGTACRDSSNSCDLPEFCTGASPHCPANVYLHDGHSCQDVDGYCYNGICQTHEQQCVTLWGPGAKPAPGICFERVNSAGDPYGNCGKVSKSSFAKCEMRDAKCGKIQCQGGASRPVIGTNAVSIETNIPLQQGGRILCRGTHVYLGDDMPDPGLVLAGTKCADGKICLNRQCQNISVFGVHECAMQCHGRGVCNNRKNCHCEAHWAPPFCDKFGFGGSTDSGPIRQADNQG
Description: as §1

[3] = target: recombinant human ADAM17 (R&D Systems) (human, UniProt P78536 215-671, limits assumed)
Sequence of recombinant human ADAM17 (R&D Systems) (P78536 215-671 limits assumed): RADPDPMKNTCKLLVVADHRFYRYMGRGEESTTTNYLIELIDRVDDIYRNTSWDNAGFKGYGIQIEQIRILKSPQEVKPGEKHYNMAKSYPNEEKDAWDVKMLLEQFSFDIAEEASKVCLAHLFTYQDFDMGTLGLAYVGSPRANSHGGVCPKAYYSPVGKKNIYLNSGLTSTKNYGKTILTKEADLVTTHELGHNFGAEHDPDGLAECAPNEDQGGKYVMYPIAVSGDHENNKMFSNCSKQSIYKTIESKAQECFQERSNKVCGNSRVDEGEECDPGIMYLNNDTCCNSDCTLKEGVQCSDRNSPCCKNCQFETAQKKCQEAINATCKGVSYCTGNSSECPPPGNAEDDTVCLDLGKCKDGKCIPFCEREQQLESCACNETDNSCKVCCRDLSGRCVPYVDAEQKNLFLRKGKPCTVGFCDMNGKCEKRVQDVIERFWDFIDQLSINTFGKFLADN
Description: as §1

[4] = target: T3, purified human MMP-1 (Daiichi Fine Chemical) (human, UniProt P03956 20-469, limits assumed)
T3 sequence (looked up): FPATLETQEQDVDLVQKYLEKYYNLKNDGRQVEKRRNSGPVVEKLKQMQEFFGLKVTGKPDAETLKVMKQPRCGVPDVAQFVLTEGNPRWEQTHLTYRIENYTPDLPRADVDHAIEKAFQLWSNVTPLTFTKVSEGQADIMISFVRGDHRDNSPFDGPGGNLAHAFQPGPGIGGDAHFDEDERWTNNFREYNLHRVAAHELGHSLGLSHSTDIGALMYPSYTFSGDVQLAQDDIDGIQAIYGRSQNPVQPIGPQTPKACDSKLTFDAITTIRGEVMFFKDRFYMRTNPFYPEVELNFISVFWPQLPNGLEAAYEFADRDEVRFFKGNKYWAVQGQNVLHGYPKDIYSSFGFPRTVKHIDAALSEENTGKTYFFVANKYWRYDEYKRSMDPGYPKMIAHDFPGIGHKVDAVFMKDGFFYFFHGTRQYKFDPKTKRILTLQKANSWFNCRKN
Description: as §1

Measured: binding result

B1: Fab of clone 237-53 (Fab, V domains shown)
VH: QVQLVQSGAEVKKPGSSVKVSCKASGGTFSSFAISWVRQAPGQGLEWMGGIFPIFGQANYAQKFQGRVTITADESTSTAYMELSSLRSEDTAVYYCARFSDWWEWQMDYWGQGTLVTVSS
VL: DIVMTQSPDSLAVSLGERATINCRSSQSILYSSNNNYLAWYQQKPGQPPKLLIHTASARESGVPDRFSGSGSGTDFTLTISSLQAEDVAVYYCQQYYSVSITFGQGTKVEIKR
no binding (tested: 5 µg/ml): [1] | [2] | [3] | [4]
